The record followed here is the supplement of paper PMC10567573.

The labels stand for the following.
B1: KRT71 (parent)
chain: FGSRSLYSLGGVRSLNVASGSGKS
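Further: lentivirally expressed fusions sorted by FACS into six bins by GFP to DsRed ratio, PSI derived from sequencing read proportions per bin multiplied by bin number.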

Variants of B1 are the subject of this data set. In words: protein stability index of a GFP-peptide fusion (GPS, HEK-293T) (PSI 1-6); higher = more stable. The settings on record: c terminus: a fixed tail appended.
With FGSRSHYSLGGVRSLNVASGSGKS [L6H], the protein stability index was 2.33.
Then FGSRSDYSLGGVRSLNVASGSGKS [L6D], with 3.7; and FGSRSFYSLGGVRSLNVASGSGKS [L6F], with 3.13.
Then FGSRSLYSCGGVRSLNVASGSGKS [L9C], with 2.12; and FGSRSLYSQGGVRSLNVASGSGKS [L9Q], with 2.79.
With FGSRSLYSSGGVRSLNVASGSGKS [L9S] the figure was 2.18; with FGSRSLYSVGGVRSLNVASGSGKS [L9V], 2.62; with FGSRSLYSEGGVRSLNVASGSGKS [L9E], 2.59.
For the variant FGSRSLYSIGGVRSLNVASGSGKS [L9I], the protein stability index stood at 1.75.
Regarding FGSRSLYSYGGVRSLNVASGSGKS [L9Y], the protein stability index was 1.77.
On to FGSRSLYSTGGVRSLNVASGSGKS [L9T], for which the protein stability index is 2.64.
With FGSRSLYSLGGVRSLNVASGLGKS [S21L] the figure was 2.11.
Then FGSRSLYSLGGVRSLNVASGDGKS [S21D], with 2.04.
With FGSRSLYSLGGVRSLNVASGHGKS [S21H] the figure was 2.11.
FGSRSLYSLGGVRSLNVASGFGKS [S21F]: the protein stability index worked out at 1.73.
Regarding FGSRSLYSLGGVRSLNVASGAGKS [S21A], the protein stability index stood at 1.83.
With FGSRSLYSLGGVRSLNVASGMGKS [S21M] the figure was 1.87; with FGSRSLYSLGGVRSLNVASGKGKS [S21K], 2.06; with FGSRSLYSLGGVRSLNVASGTGKS [S21T], 1.93.
Then FGSRSLYSLGGVRSLNVASGQGKS [S21Q], with 2.29; and FGSRSLYSLGGVRSLNVASGVGKS [S21V], with 1.41.
Then FGPRSLYSLGGVRSLNVASGSGKS [S3P], with 2.71.
FGFRSLYSLGGVRSLNVASGSGKS [S3F]: the protein stability index was found to be 2.22.
FGYRSLYSLGGVRSLNVASGSGKS [S3Y]: the protein stability index worked out at 2.7.
Turning to FGIRSLYSLGGVRSLNVASGSGKS [S3I], the protein stability index was 2.37.
Take FGTRSLYSLGGVRSLNVASGSGKS [S3T]: the protein stability index came out at 1.95.
In the case of FGGRSLYSLGGVRSLNVASGSGKS [S3G], the protein stability index is 1.84.
Then FGARSLYSLGGVRSLNVASGSGKS [S3A], with 2.19.
For the variant FGHRSLYSLGGVRSLNVASGSGKS [S3H], the protein stability index is 2.06.
Consider FGSRSLYSLGGVRSLNVASGSGGS [K23G], for which the protein stability index is 2.09.
Then FGSRSLYSLGGVRSLNVASGSGLS [K23L], with 1.74; and FGSRSLYSLGGVRSLNVASGSGPS [K23P], with 2.15; and FGSRSLYSLGGVRSLNVASGSGFS [K23F], with 2.47.
Take FGSRSLYSLGGVRSLNVASGSGIS [K23I]: the protein stability index worked out at 2.12.
Regarding FGSRSLYSLGGVRSLNVASGSGNS [K23N], the protein stability index stood at 2.09.
For FGSRSLYSLGGVRSLNVASGSGCS [K23C], the protein stability index worked out at 1.97.
With FGSRSLYSLGGVRSLNVASGSGYS [K23Y] the figure was 1.69; with FGSRSLYSLGGVRSLNVASGSGHS [K23H], 2.03.
With FGSRSLYSLGGVRSLNVASGSGWS [K23W] the figure was 2.56; with FGSRSLYSLGGVRSLNVASGSGSS [K23S], 1.9.
Then FGSRSLYSLGGVRSLNVASGSGQS [K23Q], with 1.77; and FGSRSLYSLGGVRSDNVASGSGKS [L15D], with 1.61.
For the variant FGSRSLYSLGGVRSMNVASGSGKS [L15M], the protein stability index is 2.18.
Then FGSRSLYSLGGVRSENVASGSGKS [L15E], with 2.15.
As for FGSRSLYSLGGVRSVNVASGSGKS [L15V], the protein stability index was determined as 2.07.
On to FGSRSLYSLGGVRSLNVAQGSGKS [S19Q], for which the protein stability index amounted to 2.03.
With FGSRSLYSLGGVRSLNVAVGSGKS [S19V] the figure was 2.54.
For the variant FGSRSLYSLGGVRSLNVAFGSGKS [S19F], the protein stability index is 1.47.
Then FGSRSLYSLGGVRSLNVAGGSGKS [S19G], with 1.67; and FGSRSLYSLGGVRSLNVAAGSGKS [S19A], with 1.8.
Then FGSRSLYSLGGVRSLNVANGSGKS [S19N], with 2.38.
With FGSRSLYSLGGVRSLNVASGSTKS [G22T] the figure was 1.45.
Turning to FGSRSLYSLGGVRSLNVASGSRKS [G22R], the protein stability index is 2.48.
With FGSRSLYSLGGVRSLNVASGSHKS [G22H] the figure was 2.75.
Regarding FGSRSLYSLGGVRSLNVASGSAKS [G22A], the protein stability index was determined as 1.53.
With FGSRSLYSLGGVRSLNVASGSQKS [G22Q] the figure was 2.09.
Then IGSRSLYSLGGVRSLNVASGSGKS [F1I], with 3.33.
In the case of CGSRSLYSLGGVRSLNVASGSGKS [F1C], the protein stability index was 2.87.
Then TGSRSLYSLGGVRSLNVASGSGKS [F1T], with 3.59; and MGSRSLYSLGGVRSLNVASGSGKS [F1M], with 3.75.
Then HGSRSLYSLGGVRSLNVASGSGKS [F1H], with 3.98; and YGSRSLYSLGGVRSLNVASGSGKS [F1Y], with 1.64.
Regarding KGSRSLYSLGGVRSLNVASGSGKS [F1K], the protein stability index was 4.06.
As for FGSRSLYSLGGVRILNVASGSGKS [S14I], the protein stability index was determined as 1.38.
FGSRSLYSLGGVRFLNVASGSGKS [S14F]: the protein stability index is 1.89.
Then FGSRSLYSLGGVRMLNVASGSGKS [S14M], with 1.65.
On to FGSRSLYSLGGVRPLNVASGSGKS [S14P], for which the protein stability index worked out at 1.71.
With FGSRSLYSLGGVRDLNVASGSGKS [S14D] the figure was 1.92; with FGSRSLYSLGGVRVLNVASGSGKS [S14V], 1.03.
Then FGSRSLYSLGGVRALNVASGSGKS [S14A], with 1.59; and FGSRSLYSLGGVRGLNVASGSGKS [S14G], with 2.04; and FGSRSLYSLGGVRELNVASGSGKS [S14E], with 2.66.
For the variant FGSRSLYSLGSVRSLNVASGSGKS [G11S], the protein stability index amounted to 2.11.
With FGSRSLYSLGNVRSLNVASGSGKS [G11N] the figure was 2.24.
As for FGSRSLYSLGMVRSLNVASGSGKS [G11M], the protein stability index stood at 2.71.
Then FGSRSLYSLGEVRSLNVASGSGKS [G11E], with 2.92; and FGSRSLYSLGCVRSLNVASGSGKS [G11C], with 2.87; and FGSRSLYSLWGVRSLNVASGSGKS [G10W], with 2.79.
Turning to FGSRSLYSLVGVRSLNVASGSGKS [G10V], the protein stability index was found to be 1.58.
As for FGSRSLYSLYGVRSLNVASGSGKS [G10Y], the protein stability index turned out to be 1.94.
Then FGSRSLYSLCGVRSLNVASGSGKS [G10C], with 3.19; and FGSRSLYSLIGVRSLNVASGSGKS [G10I], with 3.84.
On to FGSRSLYSLTGVRSLNVASGSGKS [G10T], for which the protein stability index is 2.05.
Turning to FGSRSLYSLRGVRSLNVASGSGKS [G10R], the protein stability index is 1.6.
For FGSRSLYSLEGVRSLNVASGSGKS [G10E], the protein stability index stood at 2.31.
Regarding FGSRSLYSLLGVRSLNVASGSGKS [G10L], the protein stability index was determined as 2.6.
With FGSRSLYSLGGVRSLNVLSGSGKS [A18L] the figure was 2.27; with FGSRSLYSLGGVRSLNVNSGSGKS [A18N], 2.81.
As to FGSRSLYSLGGVRSLNVQSGSGKS [A18Q], the protein stability index was 1.78.
Then FGSRSLYSLGGVRSLNVHSGSGKS [A18H], with 2.39.
Take FGSRSLYSLGGVRSLNVFSGSGKS [A18F]: the protein stability index turned out to be 1.9.
Then FGSRSLYSLGGVRSLNVKSGSGKS [A18K], with 2.63; and FGSRSLYSLGGVRSLNVRSGSGKS [A18R], with 2.46.
With FGSRSLYSLGGVRSLNVISGSGKS [A18I] the figure was 1.39.
